We go through one molecule from article PMC9667838 (Cell Discovery, 2022).

The assay deals with T1, Full-length human His-tagged angiotensin-converting enzyme 2 (ACE2) (human, UniProt Q9BYF1).
T1 construct: also called hACE2
Kind of assay: cryo-EM structure. Particulars: both partners purified.

T1 sequence (Q9BYF1 18-805): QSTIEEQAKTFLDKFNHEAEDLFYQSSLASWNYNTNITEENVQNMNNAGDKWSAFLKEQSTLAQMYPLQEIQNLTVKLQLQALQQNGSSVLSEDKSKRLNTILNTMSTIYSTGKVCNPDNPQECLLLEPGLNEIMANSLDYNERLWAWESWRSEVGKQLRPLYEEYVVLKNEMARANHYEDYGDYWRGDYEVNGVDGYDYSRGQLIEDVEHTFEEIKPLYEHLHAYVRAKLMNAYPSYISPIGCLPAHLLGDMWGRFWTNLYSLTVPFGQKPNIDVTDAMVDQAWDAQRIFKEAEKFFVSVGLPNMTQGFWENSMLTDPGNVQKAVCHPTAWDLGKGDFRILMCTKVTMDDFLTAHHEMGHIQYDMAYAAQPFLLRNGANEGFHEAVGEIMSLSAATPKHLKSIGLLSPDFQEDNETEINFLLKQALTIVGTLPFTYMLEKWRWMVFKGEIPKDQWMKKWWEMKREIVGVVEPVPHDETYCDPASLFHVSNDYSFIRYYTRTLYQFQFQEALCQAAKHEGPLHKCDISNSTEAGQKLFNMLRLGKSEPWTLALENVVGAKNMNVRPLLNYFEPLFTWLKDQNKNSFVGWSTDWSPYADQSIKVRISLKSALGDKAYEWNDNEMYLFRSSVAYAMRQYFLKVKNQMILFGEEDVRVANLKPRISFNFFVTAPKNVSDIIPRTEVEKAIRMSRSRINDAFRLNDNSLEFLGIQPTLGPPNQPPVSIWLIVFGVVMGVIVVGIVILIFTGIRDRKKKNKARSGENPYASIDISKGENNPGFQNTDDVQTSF

B1: Full-length human Flag-tagged SIT1 (SLC6A20) (natural protein)
chain: MEKARPLWANSLQFVFACISYAVGLGNVWRFPYLCQMYGGGSFLVPYIIMLIVEGMPLLYLELAVGQRMRQGSIGAWRTISPYLSGVGVASVVVSFFLSMYYNVINAWAFWYLFHSFQDPLPWSVCPLNGNHTGYDEECEKASSTQYFWYRKTLNISPSLQENGGVQWEPALCLLLAWLVVYLCILRGTESTGKVVYFTASLPYCVLIIYLIRGLTLHGATNGLMYMFTPKIEQLANPKAWINAATQIFFSLGLGFGSLIAFASYNEPSNNCQKHAIIVSLINSFTSIFASIVTFSIYGFKATFNYENCLKKVSLLLTNTFDLEDGFLTASNLEQVKGYLASAYPSKYSEMFPQIKNCSLESELDTAVQGTGLAFIVYTEAIKNMEVSQLWSVLYFFMLLMLGIGSMLGNTAAILTPLTDSKIISSHLPKEAISGLVCLVNCAIGMVFTMEAGNYWFDIFNDYAATLSLLLIVLVETIAVCYVYGLRRFESDLKAMTGRAVSWYWKVMWAGVSPLLIVSLFVFYLSDYILTGTLKYQAWDASQGQLVTKDYPAYALAVIGLLVASSTMCIPLAALGTFVQRRLKRGDADPVA
Take B1: the binding result is “binds”.
